For experiment [1], the target named is T1, human RON receptor (human, UniProt Q04912 25-1400). The experiment can be described thus: cell-based or functional assay.
Experiment [2] addresses T1, human RON receptor. The experiment can be described thus: flow cytometry on HT29 cells, FITC-coupled anti-human IgG1 secondary. On the procedure:
Colon cancer HT29 cell line expressing ˜19,000 RON molecules per cell were used as the model. Mouse PCM5B14 was used as the positive control. Individual H5B14 clones at different concentrations were incubated with cells followed by addition of FITC-coupled anti-human IgG1 antibody. Fluorescence intensities from individual samples were analyzed using the BD flow cytometer. Results in FIG. 2 are the dose-dependent specific binding of individual H5B14s. […] Results in Table 1 show the individual values reflecting the binding affinity and sensitivity of individual H5B14 clones to human RON receptor.
(In general: Flow cytometry measures light scatter and fluorescence of single cells or particles in a stream.)

B1: Mouse Zt/g4 (antibody, from another filing, V domains shown)
VH: EVQLQQSGAELVKPGASVKLSCTTSGFNIIDTYIHWVNQKPDQGLEWIGRIDPADGNRKSDPKFQVKATITVDTSSNTAYLQLSSLTSGDTAVYYCARGYGNLNAMDSWGQGTSVTVSS
VL: DIQMNQSPSSLSASLGDTITITCHASQNINVWLNWYQQKPGNIPKLLIYKASNLHTGVPSRFSGSGSGTGFTLTISSLQPEDIATYYCQQGQSYPLTFGGGTKLEIK
In the experiment with human RON receptor [1], B1 gave an Internalization efficacy of cell surface RON (EC50, hours), Breast T-47D of 23.5 h; an Internalization efficacy of cell surface RON (EC50, hours), Colon HT-29 of 11 h; an Internalization efficacy of cell surface RON (EC50, hours), Lung H358 of 7.47 h; an Internalization efficacy of cell surface RON (EC50, hours), Pancreatic L3.6p1 of 14.1 h.

B2: Humanized PCM5B14 H2L4 (IgG1/κ, designated as H5B14) (antibody, V domains shown)
VH: QVQLVQSGAEVKKPGATVKISCKVSGYTFTDYHMDWVQQAPGKGLEWMGDINPNNGGAIYNQKFKGRVTITADTSTDTAYMELSSLRSEDTAVYYCARSHYDYAGGAWFAYWGQGTLVTVSR
VL: EIVMTQSPGTLSLSPGERATLSCKSSQSLLFSGNQKNYLAWYQQKPGQAPRLLIYWASTRASGIPDRFSGSGSGTDFTLTISRLEPEDFAVYYCQQYYSFPRTFGQGTKLEIKR
notes: also called H5B14H2L4; Humanized 5B14
In general, EC50 refers to the concentration at which the effect is half-maximal. A low value points to greater potency. As to B2, in the experiment with human RON receptor [1], the “Internalization efficacy of cell surface RON (EC50, hours), Breast T-47D” value turned out to be 8.26 h; the “Internalization efficacy of cell surface RON (EC50, hours), Colon HT-29” value was found to be 5.33 h; the “Internalization efficacy of cell surface RON (EC50, hours), Lung H358” value was found to be 7.94 h; the “Internalization efficacy of cell surface RON (EC50, hours), Pancreatic L3.6p1” value came to 8.17 h. Also, in the experiment with human RON receptor [2], the EC50 is 2.22 µg/mL and the LogEC50 was 0.346 log(µg/ml).

Source of the values: patent publication US20190352422A1 (PCM TARGETECH, published 2019).
